In patent publication US20240116985A1 (published 2024):
Starred links: 1 amine or outer side, 2 acyl side, 3 side chain; linkers in the order of their positions; H or OH if unused. Positions of bridges follow the written chain, without caps; N, C: chain ends. Non-standard residues stand in square brackets, D forms with d. Primed or numbered codes have the meaning given here. PyrS2(3) = (S)-3-amino-1-((pent-4-en-1-yloxy)carbonyl)pyrrolidine-3-carboxylic acid, stapling residue, C=CCCCOC(=O)N1CC[C@@](N[*:1])(C(=O)[*:2])C1; RdN(3) = (R)-4-(((allyloxy)carbonyl)(methyl)amino)-2-amino-2-methylbutanoic acid, stapling residue, C=CCOC(=O)N(C)CC[C@@](C)(N[*:1])C(=O)[*:2]; RdN″ = (R)-4-(((allyloxy)carbonyl)(methyl)amino)-2-amino-2-methylbutanoic acid (stapling residue), C=CCOC(=O)N(C)CC[C@@](C)(N[*:1])C(=O)[*:2]; B5(18) = 2,2-bis(4-pentenyl)glycine (2-amino-2-(pent-4-en-1-yl)hept-6-enoic acid), stitching residue, C=CCCCC(CCCC=C)(N[*:1])C(=O)[*:2]; B5(4) = 2,2-bis(4-pentenyl)glycine = 2-amino-2-(pent-4-en-1-yl)hept-6-enoic acid (stitching residue), C=CCCCC(CCCC=C)(N[*:1])C(=O)[*:2]; B5(5) = 2,2-bis(4-pentenyl)glycine, 2-amino-2-(pent-4-en-1-yl)hept-6-enoic acid (stitching residue), C=CCCCC(CCCC=C)(N[*:1])C(=O)[*:2]; TfeGA = (S)-2-amino-3-((carboxymethyl)(2,2,2-trifluoroethyl)amino)propanoic acid, O=C([C@H](CN(CC(=O)[*:3])CC(F)(F)F)N[*:1])[*:2]; RdN = (R)-4-(((allyloxy)carbonyl)(methyl)amino)-2-amino-2-methylbutanoic acid, C=CCOC(=O)N(C)CC[C@@](C)(N[*:1])C(=O)[*:2]; B5(19) = 2-amino-2-(pent-4-en-1-yl)hept-6-enoic acid (bis(4-pentenyl)glycine), C=CCCCC(CCCC=C)(N[*:1])C(=O)[*:2]; EtGA = (S)-2-amino-3-((carboxymethyl)(ethyl)amino)propanoic acid, CCN(CC(=O)[*:3])C[C@H](N[*:1])C(=O)[*:2]; TriAzDap = Dap whose side chain is a 1H-1,2,3-triazol-1-yl bearing the bracketed 4-substituent; B5 = 2-amino-2-(pent-4-en-1-yl)hept-6-enoic acid, C=CCCCC(CCCC=C)(N[*:1])C(=O)[*:2]; Phe(3-COOH) = N[C@@H](Cc1cccc(C(=O)O)c1)C(=O)O; S7 = C[C@@](CCCCCC=[*:3])(N[*:1])C(=O)[*:2]; Phe(2-Cl) = N[C@@H](Cc1ccccc1Cl)C(=O)O; Bta = N[C@@H](Cc1csc2ccccc12)C(=O)O; αAllylPro = C=CC[C@@]1(C(=O)O)CCCN1; tBuAla = CC(C)(C)C[C@H](N)C(=O)O; 3Thi = N[C@@H](Cc1ccsc1)C(=O)O; S8 = C=CCCCCCC[C@](C)(N)C(=O)O; Aib = CC(C)(N)C(=O)O

T1: B-cat-Halo (beta-catenin HaloTag construct expressed in HEK293 cells) (UniProt P35222 1-781)
T1 sequence (looked up): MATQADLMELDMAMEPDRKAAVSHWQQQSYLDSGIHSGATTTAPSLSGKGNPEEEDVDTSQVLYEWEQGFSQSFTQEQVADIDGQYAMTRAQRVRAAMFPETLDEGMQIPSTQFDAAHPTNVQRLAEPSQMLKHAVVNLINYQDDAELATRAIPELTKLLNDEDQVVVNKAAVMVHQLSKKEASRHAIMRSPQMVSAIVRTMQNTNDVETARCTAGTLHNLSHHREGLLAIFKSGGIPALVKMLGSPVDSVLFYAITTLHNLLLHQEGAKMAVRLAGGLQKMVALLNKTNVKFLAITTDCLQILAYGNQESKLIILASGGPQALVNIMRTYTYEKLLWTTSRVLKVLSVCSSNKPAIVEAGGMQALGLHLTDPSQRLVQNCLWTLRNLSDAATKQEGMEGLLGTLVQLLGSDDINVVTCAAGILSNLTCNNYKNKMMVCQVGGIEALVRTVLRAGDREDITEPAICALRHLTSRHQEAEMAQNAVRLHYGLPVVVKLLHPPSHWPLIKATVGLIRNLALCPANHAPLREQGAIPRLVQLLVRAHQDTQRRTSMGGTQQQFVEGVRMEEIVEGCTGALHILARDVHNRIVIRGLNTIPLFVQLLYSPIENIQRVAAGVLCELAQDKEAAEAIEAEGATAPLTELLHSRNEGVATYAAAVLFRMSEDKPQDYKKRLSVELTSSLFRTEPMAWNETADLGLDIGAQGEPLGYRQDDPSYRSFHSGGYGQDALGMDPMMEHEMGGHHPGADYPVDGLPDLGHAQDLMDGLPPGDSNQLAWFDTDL

T2: full-length beta-Catenin (Uniprot ID P35222) (Homo sapiens (Human), UniProt P35222 1-781)
T2 construct: The assay protocol says 'full-length beta-Catenin (Uniprot ID P35222)'; also called bCat; B-Catenin
T2 sequence: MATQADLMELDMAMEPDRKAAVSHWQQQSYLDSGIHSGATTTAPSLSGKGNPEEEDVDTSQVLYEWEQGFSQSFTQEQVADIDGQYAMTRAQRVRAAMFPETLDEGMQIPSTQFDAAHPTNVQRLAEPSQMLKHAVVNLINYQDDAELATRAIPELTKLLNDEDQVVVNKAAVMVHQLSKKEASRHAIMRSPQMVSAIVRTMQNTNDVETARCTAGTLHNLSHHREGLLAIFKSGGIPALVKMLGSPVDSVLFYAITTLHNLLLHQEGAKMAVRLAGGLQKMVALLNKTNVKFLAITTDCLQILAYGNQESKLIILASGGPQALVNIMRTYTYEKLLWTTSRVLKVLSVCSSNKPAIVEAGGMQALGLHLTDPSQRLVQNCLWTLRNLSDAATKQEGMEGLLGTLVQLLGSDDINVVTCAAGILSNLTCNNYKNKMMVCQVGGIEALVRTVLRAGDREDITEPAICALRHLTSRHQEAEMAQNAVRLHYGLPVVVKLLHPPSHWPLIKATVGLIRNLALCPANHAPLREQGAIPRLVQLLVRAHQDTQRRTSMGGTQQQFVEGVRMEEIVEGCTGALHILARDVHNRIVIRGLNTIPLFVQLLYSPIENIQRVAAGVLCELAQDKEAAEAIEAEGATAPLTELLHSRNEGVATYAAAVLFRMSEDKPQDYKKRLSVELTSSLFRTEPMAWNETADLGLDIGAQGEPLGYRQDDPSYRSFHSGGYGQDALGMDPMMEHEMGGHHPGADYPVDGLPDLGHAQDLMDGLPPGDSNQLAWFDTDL

B1: I-1851 (peptide)
peptide: Ac-[αAllylPro]D[tBuAla][B5(18)]D[Phe(3-COOH)]AAFL[PyrS2(3)][Phe(2-Cl)][Bta]A-NH2
modifications: staple 1-4, 4-11
B2: I-1862 (peptide)
peptide: Ac-[αAllylPro]D[tBuAla][B5(18)]D[TfeGA]AAF[TriAzDap](CH2NMe2)[PyrS2(3)][3Thi][Bta]Q-NH2
modifications: staple 1-4, 4-11; not fully specified
B3: I-1861 (peptide)
peptide: Ac-[αAllylPro]D[tBuAla][B5(18)]D[TfeGA]AAF[TriAzDap](CH2NMe2)[PyrS2(3)][3Thi][Bta]Q-NH2
modifications: staple 1-4, 4-11; not fully specified
B4: I-1853 (peptide)
peptide: Ac-[αAllylPro]N[tBuAla][B5(18)]D[Phe(3-COOH)]AAFL[PyrS2(3)][Phe(2-Cl)][Bta]S-NH2
modifications: staple 1-4, 4-11
B5: I-1850 (peptide)
peptide: Ac-[αAllylPro]D[tBuAla][B5(18)]D[Phe(3-COOH)]AAFV[PyrS2(3)][Phe(2-Cl)][Bta]S-NH2
modifications: staple 1-4, 4-11
B6: I-1852 (peptide)
peptide: Ac-[αAllylPro]D[tBuAla][B5(18)]D[Phe(3-COOH)]AAFL[PyrS2(3)][Phe(2-Cl)][Bta]-NH2
modifications: staple 1-4, 4-11
B7: I-172 (peptide)
peptide: Ac-[αAllylPro]DA[B5(4)]D[EtGA]AAFV[S8]FWQ-NH2
modifications: staple 1-4, 4-11; not fully specified
notes: also called Ac-PL3-Asp-Ala-B5-Asp-EtGA-Ala-Ala-Phe-Val-S8-Phe-Trp-Gln-NH2
B8: I-155 (peptide)
peptide: ADIXDEAAFAXFWA
modifications: not fully specified; N-terminal acetyl (Ac); RdN at 4 and S7 at 11 (staple RdN-S7 by olefin metathesis); C-terminal amide (NH2)
notes: also called Ac-Ala-Asp-Ile-RdN-Asp-Glu-Ala-Ala-Phe-Ala-S7-Phe-Trp-Ala-NH2
B9: I-154 (peptide)
peptide: ADIXDEAAFAXFWA
modifications: not fully specified; N-terminal acetyl (Ac); RdN at 4 and S7 at 11 (staple RdN-S7 by olefin metathesis); C-terminal amide (NH2)
notes: as for B8
B10: I-152 (peptide)
peptide: Ac-ADI[RdN″]DEAAFA[S7]FWH-NH2
modifications: staple 4-11
notes: also called Ac-Ala-Asp-Ile-RdN-Asp-Glu-Ala-Ala-Phe-Ala-S7-Phe-Trp-His-NH2
B11: I-153 (peptide)
peptide: Ac-ADI[RdN(3)]DEAAFQ[S7]FWA-NH2
modifications: staple 4-11
notes: also called Ac-Ala-Asp-Ile-RdN-Asp-Glu-Ala-Ala-Phe-Gln-S7-Phe-Trp-Ala-NH2
B12: I-147 (peptide)
peptide: Ac-[Aib]DI[RdN]DEAAFQ[S7]FW-NH2
modifications: staple 4-11
notes: also called Ac-Aib-Asp-Ile-RdN-Asp-Glu-Ala-Ala-Phe-Gln-S7-Phe-Trp-NH2
B13: I-176 (peptide)
peptide: Ac-[αAllylPro]DI[B5(5)]DEAAFV[S8]FWH-NH2
modifications: staple 1-4, 4-11
notes: also called Ac-PL3-Asp-Ile-B5-Asp-Glu-Ala-Ala-Phe-Val-S8-Phe-Trp-His-NH2
B14: I-148 (peptide)
peptide: Ac-ADI[RdN″]DEAAFQ[S7]FW-NH2
modifications: staple 4-11
notes: also called Ac-Ala-Asp-Ile-RdN-Asp-Glu-Ala-Ala-Phe-Gln-S7-Phe-Trp-NH2
B15: I-173 (peptide)
peptide: Ac-[αAllylPro]DA[B5]D[EtGA]AAFV[S8]FWQ-NH2
modifications: staple 1-4, 4-11; not fully specified
notes: as for B7
B16: I-178 (peptide)
peptide: Ac-[αAllylPro]DA[B5(19)]DEAAFQ[S8]FWH-NH2
modifications: staple 1-4, 4-11
notes: also called Ac-PL3-Asp-Ala-B5-Asp-Glu-Ala-Ala-Phe-Gln-S8-Phe-Trp-His-NH2

Each binder was assayed against T1, B-cat-Halo (beta-catenin HaloTag …) (assay: cell-based or functional assay).
In the case of B1, the “NanoBRET Abs IC50” value is reported as 3.8 µM. B2 was tested, and the “NanoBRET Abs IC50” value was 19.3 µM. In the case of B3, the “NanoBRET Abs IC50” value is reported as 37.3 µM. With B4 the “NanoBRET Abs IC50” value was 16.3 µM. With B5 the “NanoBRET Abs IC50” value was 3.8 µM. In the case of B6, the “NanoBRET Abs IC50” value is reported as 4.9 µM.

Each binder was assayed against T2, full-length beta-Catenin (Uniprot ID …) (assay: fluorescence polarization competition; full-length beta-catenin, competitor 5FAM-TCF4(10-53) probe).
Method: The plate was incubated protected from light for 60 minutes at 20° C. prior to read. Reads were performed on a CLARIOstar plate reader (BMG Labtech) in duplicate, and data were fitted to a 1:1 binding model with hill slope using an in-house script. All provided concentrations are final concentrations.
B7 was tested, and the IC50 was 5 µM. In the case of B8, the IC50 is reported as 5 µM. B9 showed an IC50 of 5 µM. In the case of B10, the IC50 is reported as 5 µM. B11 gave an IC50 of 2.14 µM. Work on B12 yielded an IC50 of 1.64 µM. Work on B13 yielded an IC50 of 1.99 µM. B14 was tested, and the IC50 was 2.77 µM. B15 was tested, and the IC50 was 3.12 µM. Work on B16 yielded an IC50 of 1.63 µM.
